{"source": "patent US20150158933A1", "target": "natural VIF protein on the surface of T1 human cells infected with HIV-1 strain IIIB (HIV-1 strain IIIB) (UniProt P69723)", "sequence (P69723 whole entry)": "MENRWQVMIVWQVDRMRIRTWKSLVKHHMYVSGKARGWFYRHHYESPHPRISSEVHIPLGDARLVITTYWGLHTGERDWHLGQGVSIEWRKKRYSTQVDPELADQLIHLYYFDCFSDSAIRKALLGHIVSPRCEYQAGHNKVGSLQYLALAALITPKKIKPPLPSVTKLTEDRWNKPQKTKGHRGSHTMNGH", "assay": "flow cytometry on HIV-1 IIIB infected T1 cells, 1:100", "data": [{"substance": "Isotype control (antibody)", "values": [{"measurement": "MFI", "value": 971}]}]}
